T1: canine CD20 on cells (HEK293, MDCK II, CLBL-1 or native B cells) (canine, UniProt Q3C2E2 1-297)
T1 construct: also called dCD20; cCD20
T1 chain: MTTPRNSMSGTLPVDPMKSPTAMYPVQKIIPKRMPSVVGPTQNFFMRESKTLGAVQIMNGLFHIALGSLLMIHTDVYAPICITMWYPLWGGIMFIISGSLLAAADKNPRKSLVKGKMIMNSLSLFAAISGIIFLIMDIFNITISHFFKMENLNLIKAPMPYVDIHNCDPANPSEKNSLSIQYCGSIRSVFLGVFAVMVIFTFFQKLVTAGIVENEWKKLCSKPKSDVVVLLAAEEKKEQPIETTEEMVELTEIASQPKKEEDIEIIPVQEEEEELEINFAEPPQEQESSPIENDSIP


Legend:
[1] = target: T1, canine CD20 on cells (HEK293, MDCK II, …); assay: flow cytometry, canine CD20-expressing HEK cells, 10 µg/ml
Procedure: (§1) A CD20 binding screen was performed on candidate proteins produced from the canine CD20 immunisation as described in Examples 2 and 3. CHO cells supernatants containing candidate antibodies were diluted to 10 μg/ml in FACS buffer (PBS containing 3% FBS) and screened for their ability to bind canine CD20 expressed on cell surface. In brief, 1-2×10⁵ canine CD20-expressing HEK cells were incubated with candidate mAbs for one hour at 4° C., at a fixed concentration of 10 μg/ml followed by incubation with 5 μg/ml of FITC-conjugated anti-canine IgG secondary antibody (Bethyl Laboratories) for 1 hour at 4° C. Cells incubated with anti-canine IgG FITC secondary antibody and without primary anti-canine CD20 antibody, or with isotype control primary antibody, were used as negative controls. The data were acquired on either a Beckman Coulter CytoFLEX or a BD Accuri C6 Plus flow cytometer and analysed using FlowJo software.

[2] = target: T1, canine CD20 on cells (HEK293, MDCK II, …); assay: flow cytometry, canine CD20 HEK293 cells, FITC anti-canine IgG
Procedure: as §1

binding result [1] | binding result [2] | Binder
binds |  | PMX244 (monospecific anti-canine CD20, canine IgG-B, lambda C5) (antibody, V domains shown) VH: EVQLVESGGDLVKPGGSLRLSCVASGFTFSRYHMSWVRQAPGKGLQWVAYINSGGSDSDYADAVKGRFTISRDNAKNTLYLQMNSLRAEDTAVYYCTSLDYWGQGTLVTVSS VL: SYVLTQLPSKNVTLKQPAHITCGGDNIGSKSVHWYQQKLGQAPILIIYYDRRRPTGIPERFSGANSGNTATLTISGALAEDEADYYCQVWDRSGNVFGGGTHLTVLG
 | no binding (tested: 10 µg/ml) | PMX250 (monospecific anti-canine CD20, canine IgG-B, lambda C5) (antibody, V domains shown) VH: EVQLVESGGDLVKPGGSLRLSCVASGFTFSSYHMSWVRQAPGKGLQWVAYINSGGSSTSYADAVKGRFTISRDNAKNTLYLQMTSLRAEDTAVYYCTSFDYWGQGTLVTVSS VL: SYVLTQLPSKNVTLKQPAHITCGGDNIGSKSVHWYQQKLGQAPVLIIYYDSSRPTGIPERFSGANSGNTATLTISGALAEDEADYYCQVWDSSANVFGGGTHLTVLG
